Measured values as given in patent publication US12036234B2, “Heparin conjugated to collagen-binding peptides for targeting to biological and synthetic tissues” (Northwestern University, priority 2017, dated 2024).
Ends that are not written are not given here.

Biological target: collagen IV (Mus musculus, UniProt P02463+P08122)
Assay: Cy5 conjugate binding to surface coated collagen IV
Conditions: 30 mg/ml, improved batch, 24 hour incubation
Experimental: Heparin(Cy5)-CBP conjugates were synthesized using N-(3-dimethylaminopropyl)-N′-ethylcarbodiimide/N-hydroxyl succinimide (EDC/NHS) chemistry (1,2). Briefly, 1 mM of heparin sodium salt or fluorescently pre-conjugated Heparin(Cyanine5) (Hep-Cy5) mixed with 120 mM EDC and 60 mM NHS in 2-(N-morpholino) ethanesulfonic acid (MES) buffer at pH 6.5. This was rocked for 4 hours at 20° C. 1 mM of […] binding peptide (CQDSETRTFY (SEQ ID NO:1), CBP) or a scrambled sequence (CDEFQRSTTY (SEQ ID NO:2), CBPi) was added, and allowed to rock overnight at 4° C. This mixture was dialyzed to exclude molecules […] 3.5 kDa and lyophilized to dry. Four molecular assays were used to assess the functional synthesis of these conjugates. An Ellman's assay is capable of colormetrically labeling the thiol containing cysteine amino acid, and was used to assess the cysteine molar quantity of the whole conjugate (3). A dimethylmethylene blue assay was used to stain the glycosaminoglycan present in heparin conjugates to determine the heparin molar quantity (4). A colormetric kit was used to assess clotting via factor Xa (5). Effective CBP related binding of the conjugate was measured via the Cy5 fluorophore, using a 24 hour incubation with surface coated collagen IV (6). […]

collagen IV, sequence (P02463 173-1669): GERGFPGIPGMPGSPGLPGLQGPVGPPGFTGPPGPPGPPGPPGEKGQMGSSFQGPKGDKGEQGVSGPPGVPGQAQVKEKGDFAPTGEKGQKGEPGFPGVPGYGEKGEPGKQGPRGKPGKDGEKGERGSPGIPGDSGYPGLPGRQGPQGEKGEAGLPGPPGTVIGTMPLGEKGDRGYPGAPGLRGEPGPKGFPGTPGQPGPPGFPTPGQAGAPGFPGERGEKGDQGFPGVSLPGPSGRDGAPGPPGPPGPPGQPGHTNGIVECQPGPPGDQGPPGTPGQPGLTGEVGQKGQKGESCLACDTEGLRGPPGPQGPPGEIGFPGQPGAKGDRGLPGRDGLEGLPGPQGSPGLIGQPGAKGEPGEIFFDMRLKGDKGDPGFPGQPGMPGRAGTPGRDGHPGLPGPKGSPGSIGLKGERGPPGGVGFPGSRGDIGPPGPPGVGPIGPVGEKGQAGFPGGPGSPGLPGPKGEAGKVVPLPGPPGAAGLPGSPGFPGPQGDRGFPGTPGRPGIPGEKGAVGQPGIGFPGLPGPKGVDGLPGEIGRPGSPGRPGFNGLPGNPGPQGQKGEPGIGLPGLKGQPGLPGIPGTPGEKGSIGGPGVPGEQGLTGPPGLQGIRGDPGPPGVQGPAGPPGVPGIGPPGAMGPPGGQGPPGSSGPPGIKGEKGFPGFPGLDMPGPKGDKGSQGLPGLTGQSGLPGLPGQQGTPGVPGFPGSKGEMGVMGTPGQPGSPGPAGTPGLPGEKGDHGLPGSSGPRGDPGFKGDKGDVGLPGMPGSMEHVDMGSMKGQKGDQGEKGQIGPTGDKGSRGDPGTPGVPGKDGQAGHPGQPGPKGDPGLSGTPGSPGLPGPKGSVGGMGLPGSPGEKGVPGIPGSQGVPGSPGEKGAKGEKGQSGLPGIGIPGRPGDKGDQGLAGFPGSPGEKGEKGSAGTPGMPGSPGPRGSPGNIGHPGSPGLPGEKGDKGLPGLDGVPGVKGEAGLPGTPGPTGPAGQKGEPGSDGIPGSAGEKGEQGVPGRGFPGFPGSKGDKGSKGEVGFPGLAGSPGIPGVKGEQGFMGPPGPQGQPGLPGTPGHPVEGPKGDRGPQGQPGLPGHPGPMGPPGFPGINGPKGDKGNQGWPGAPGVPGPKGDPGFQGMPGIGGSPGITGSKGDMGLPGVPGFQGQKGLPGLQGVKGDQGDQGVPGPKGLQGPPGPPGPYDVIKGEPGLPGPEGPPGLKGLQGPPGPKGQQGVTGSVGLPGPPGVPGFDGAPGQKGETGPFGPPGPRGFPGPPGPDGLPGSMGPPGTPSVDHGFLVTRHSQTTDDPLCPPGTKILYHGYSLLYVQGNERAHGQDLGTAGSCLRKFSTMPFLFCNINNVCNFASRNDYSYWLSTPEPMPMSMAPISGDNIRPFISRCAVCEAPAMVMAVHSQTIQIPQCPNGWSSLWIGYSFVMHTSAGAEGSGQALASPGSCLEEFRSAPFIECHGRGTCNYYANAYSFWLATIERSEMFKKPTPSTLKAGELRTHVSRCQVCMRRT
collagen IV, sequence (P08122 184-1707): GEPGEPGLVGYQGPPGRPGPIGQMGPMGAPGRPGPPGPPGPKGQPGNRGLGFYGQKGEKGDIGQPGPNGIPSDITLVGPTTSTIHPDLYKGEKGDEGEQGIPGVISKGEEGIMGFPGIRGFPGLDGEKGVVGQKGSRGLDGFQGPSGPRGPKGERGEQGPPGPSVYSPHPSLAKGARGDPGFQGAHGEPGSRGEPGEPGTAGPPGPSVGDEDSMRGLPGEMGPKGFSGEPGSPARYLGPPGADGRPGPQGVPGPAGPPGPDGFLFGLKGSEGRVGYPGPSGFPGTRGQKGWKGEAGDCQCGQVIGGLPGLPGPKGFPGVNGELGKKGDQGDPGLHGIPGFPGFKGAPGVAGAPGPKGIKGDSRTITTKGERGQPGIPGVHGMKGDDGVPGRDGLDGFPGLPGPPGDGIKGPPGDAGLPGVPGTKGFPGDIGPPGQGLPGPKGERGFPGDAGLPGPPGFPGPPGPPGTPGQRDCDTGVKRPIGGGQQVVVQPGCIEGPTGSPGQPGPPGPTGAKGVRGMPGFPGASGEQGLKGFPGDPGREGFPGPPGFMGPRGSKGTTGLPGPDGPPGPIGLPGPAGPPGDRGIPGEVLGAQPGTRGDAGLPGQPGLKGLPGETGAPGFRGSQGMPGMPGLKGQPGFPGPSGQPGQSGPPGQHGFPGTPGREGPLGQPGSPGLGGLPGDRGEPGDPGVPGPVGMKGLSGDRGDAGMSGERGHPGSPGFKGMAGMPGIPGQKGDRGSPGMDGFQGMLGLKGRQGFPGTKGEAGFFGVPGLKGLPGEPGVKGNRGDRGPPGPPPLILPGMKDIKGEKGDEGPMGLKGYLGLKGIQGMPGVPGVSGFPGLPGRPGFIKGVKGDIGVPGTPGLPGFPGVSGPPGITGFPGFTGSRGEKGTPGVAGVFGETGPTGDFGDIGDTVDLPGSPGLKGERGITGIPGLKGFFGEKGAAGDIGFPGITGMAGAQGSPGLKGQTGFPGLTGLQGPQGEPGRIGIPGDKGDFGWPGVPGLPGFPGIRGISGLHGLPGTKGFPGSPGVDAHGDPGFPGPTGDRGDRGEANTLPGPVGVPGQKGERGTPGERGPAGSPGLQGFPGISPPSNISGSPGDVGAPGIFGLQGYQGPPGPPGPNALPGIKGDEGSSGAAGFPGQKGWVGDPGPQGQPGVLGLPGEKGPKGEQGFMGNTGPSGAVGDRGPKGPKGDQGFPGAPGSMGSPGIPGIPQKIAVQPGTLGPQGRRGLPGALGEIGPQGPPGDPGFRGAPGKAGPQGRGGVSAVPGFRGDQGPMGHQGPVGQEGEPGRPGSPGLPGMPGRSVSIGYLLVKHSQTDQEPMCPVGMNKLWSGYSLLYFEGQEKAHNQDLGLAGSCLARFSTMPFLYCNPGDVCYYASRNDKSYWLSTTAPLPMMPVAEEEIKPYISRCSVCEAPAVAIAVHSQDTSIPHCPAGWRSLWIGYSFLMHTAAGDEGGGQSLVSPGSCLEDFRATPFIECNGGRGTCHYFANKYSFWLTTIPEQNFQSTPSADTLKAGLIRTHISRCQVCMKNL

With “CBP-Hep(Cy5): Cy5-labelled heparin conjugated with CBP by EDC/NHS chemistry (CQDSETRTFY; also: conjugated to Cy5-labelled heparin by EDC/NHS, place not given here)” the “binding to collagen IV relative to scrambled CBPi control” value was “four times more”.
